Molecular target: Ipf1 (IPF1, Pdx1) (Mus musculus, UniProt P52946 SEQ:1-284)
Assay: EMSA; same mobility as IPF1 from betaTC1 nuclear extract; competition with wild-type and mutant P1 sites showed same specificity as endogenous IPF1
Conditions: tags: none; rabbit reticulocyte lysate from full-length cDNA in pGEM3
Protocol: RNA prepared from the IPF1 cDNA template was translated in vitro and the DNA binding specificity of the in vitro translation product was determined using an electrophoretic mobility shift assay (EMSA) and the insulin promoter PI site as a probe (Ohisson et al., (1991) Mol Endocrin 5:897-904; see also Materials and Methods below). The in vitro translation product bound to the P1 element and migrated to the same relative position in the gel as IPF1 from the βTC1 nuclear extract.

Sequence of Ipf1 (IPF1, Pdx1) (P52946 other isoform, or with tags, fused parts or gaps): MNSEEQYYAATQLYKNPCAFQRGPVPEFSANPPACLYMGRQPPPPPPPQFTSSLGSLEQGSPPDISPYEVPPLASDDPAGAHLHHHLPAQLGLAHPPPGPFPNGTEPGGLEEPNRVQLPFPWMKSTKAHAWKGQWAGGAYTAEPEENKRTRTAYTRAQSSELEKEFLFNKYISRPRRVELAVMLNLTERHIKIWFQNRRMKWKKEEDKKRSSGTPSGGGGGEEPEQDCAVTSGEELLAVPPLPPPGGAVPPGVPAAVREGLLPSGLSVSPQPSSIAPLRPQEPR

B1: P1 wild-type insulin promoter element (dsDNA)
DNA 1: GCCCTTAATGGGCCAAACGGCA
DNA 2: TGCCGTTTGGCCCATTAAGGGC
B1: binds.
